Data on two molecules can be found in US20220218639A1.

The test system of one assay is preformed blood clots. Briefly: In-vitro circulating plasma lung model of pulmonary embolism. The conditions noted are these: circulating human plasma. As to the method: The in-vitro circulating plasma lung model 200 of pulmonary embolism (as shown in FIGS. 22 and 23), consists of a 3-D printed circuit 210, designed to mimic lung vasculature, and in which preformed blood clots of known mass are placed. This “lung” is in fluid connection with a reservoir 220 of approximately 200-250 mL of human plasma, type-matched to the clots, that is recirculated with a peristaltic pump 230, passed through a heating element (not shown), then pumped through the lung itself at a physiological constant pressure. An injection port 240 allows injection of reagents, enzymes or other molecules. After lysis is initiated, the “lung” is circulated for one hour. Clots are weighed before and after completion of the experiment reweighed, to provide for percentage of clot lysis information for each treatment regime.
In this Example, pulmonary embolism was simulated using the in-vitro lung model of Example 13 and the ability of the delivery system of the present disclosure was analyzed for its ability to remove clots.
Particularly, human plasma (200-250 mL), recirculated (37° C.) and loaded with approximately 4 grams type-matched clots was injected into the delivery system. After 1 hour of circulation, the clots were removed and weighed.

The target in another assay is plasmin (Homo sapiens, UniProt P00747). The conditions noted are these: binding to the serine in plasmin's active site; cited from earlier work.
Chain of plasmin (P00747 581-810 limits assumed): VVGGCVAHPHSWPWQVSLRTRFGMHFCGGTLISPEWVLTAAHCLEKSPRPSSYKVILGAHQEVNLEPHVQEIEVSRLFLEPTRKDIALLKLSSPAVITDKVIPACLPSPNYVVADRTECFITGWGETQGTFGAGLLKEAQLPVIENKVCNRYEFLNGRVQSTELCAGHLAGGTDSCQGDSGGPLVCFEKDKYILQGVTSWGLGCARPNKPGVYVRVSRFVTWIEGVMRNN
Chain of plasmin (P00747 97-580 limits assumed): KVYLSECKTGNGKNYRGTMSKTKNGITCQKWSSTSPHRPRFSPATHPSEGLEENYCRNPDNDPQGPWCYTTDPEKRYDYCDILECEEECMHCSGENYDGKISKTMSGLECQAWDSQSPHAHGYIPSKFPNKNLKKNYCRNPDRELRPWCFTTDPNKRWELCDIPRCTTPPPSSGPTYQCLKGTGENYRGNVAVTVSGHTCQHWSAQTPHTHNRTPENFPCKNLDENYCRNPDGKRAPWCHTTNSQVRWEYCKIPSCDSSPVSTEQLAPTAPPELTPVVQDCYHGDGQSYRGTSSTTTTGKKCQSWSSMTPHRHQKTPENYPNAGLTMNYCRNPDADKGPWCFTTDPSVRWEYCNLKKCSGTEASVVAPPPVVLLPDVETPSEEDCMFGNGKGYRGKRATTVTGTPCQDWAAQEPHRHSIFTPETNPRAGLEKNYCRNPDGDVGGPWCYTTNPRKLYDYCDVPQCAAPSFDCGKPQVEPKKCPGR

B1: tPA: Tissue plasminogen activator, converts plasminogen into plasmin (protein, UniProt P00750 36-562, looked up)
Tissue-type plasminogen …: SYQVICRDEKTQMIYQQHQSWLRPVLRSNRVEYCWCNSGRAQCHSVPVKSCSEPRCFNGGTCQQALYFSDFVCQCPEGFAGKCCEIDTRATCYEDQGISYRGTWSTAESGAECTNWNSSALAQKPYSGRRPDAIRLGLGNHNYCRNPDRDSKPWCYVFKAGKYSSEFCSTPACSEGNSDCYFGNGSAYRGTHSLTESGASCLPWNSMILIGKVYTAQNPSAQALGLGKHNYCRNPDGDAKPWCHVLKNRRLTWEYCDVPSCSTCGLRQYSQPQFRIKGGLFADIASHPWQAAIFAKHRRSPGERFLCGGILISSCWILSAAHCFQERFPPHHLTVILGRTYRVVPGEEEQKFEVEKYIVHKEFDDDTYDNDIALLQLKSDSSRCAQESSVVRTVCLPPADLQLPDWTECELSGYGKHEALSPFYSERLKEAHVRLYPSSRCTSQHLLNRTVTDNMLCAGDTRSGGPQANLHDACQGDSGGPLVCLNDGRMTLVGIISWGLGCGQKDVPGVYTKVTNYLDWIRDNMRP
For the molecule B1, the “reduction in antiplasmin (α2 AP)” value in the assay with preformed blood clots is reported as “fully depleted”.

B2: α2-antiplasmin: Circulating serpin that rapidly inhibits plasmin (protein)
chain: NQEQVSPLTLLKLGNQEPGGQTALKSPPGVCSRDPTPEQTHRLARAMMAFTADLFSLVAQTSTCPNLILSPLSVALALSHLALGAQNHTLQRLQQVLHAGSGPCLPHLLSRLCQDLGPGAFRLAARMYLQKGFPIKEDFLEQSEQLFGAKPVSLTGKQEDDLANINQWVKEATEGKIQEFLSGLPEDTVLLLLNAIHFQGFWRNKFDPSLTQRDSFHLDEQFTVPVEMMQARTYPLRWFLLEQPEIQVAHFPFKNNMSFVVLVPTHFEWNVSQVLANLSWDTLHPPLVWERPTKVRLPKLYLKHQMDLVATLSQLGLQELFQAPDLRGISEQSLVVSGVQHQSTLELSEVGVEAAAATSIAMSRMSLSSFSVNRPFLFFIFEDTTGLPLFVGSVRNPNPSAPRELKEQQDSPGNKDFLQSLKGFPRGDKLFGPDLKLVPPMEEDYPQFGSPK
B2: the “rate constant of plasmin inhibition” value with plasmin is recorded as 4×10^7 M^−1Sec^−1.
